Read-outs that look alike come from different tables or passages of the source.

For data set [1], the target named is T1, PTBP1-RRM2 (UniProt P26599-1 178-317, C250S;C251S). The data set is described as follows: NMR.
Data set [2] has as its target T2, PTBP1-RRM1 (UniProt P26599-1 41-163). The data set is described as follows: NMR.
Data set [3] concerns the target T1, PTBP1-RRM2. The data set is described as follows: NMR solution structure model.
Data set [4] has as its target T2, PTBP1-RRM1. The data set is described as follows: NMR. The source holds these as a separate data set.
Data set [5] has as its target PTBP1 full length (UniProt P26599-1 1-531, C250S;C251S). The data set is described as follows: UV crosslinking CLIR-MS/MS.
Data set [6] has as its target PTBP1-RRM34 (UniProt P26599-1 324-531). The data set is described as follows: NMR.
Data set [7] deals with PTBP1-RRM1;PTBP1-RRM34 (;, UniProt P26599-1;P26599-1 41-163;324-531, |). The data set is described as follows: NMR.

In the case of GGAGCGUUUGUCUAUAUGUUCC (structured_RNA) [EMCVE], the binding result in data set [1] and in data set [2] was “binds” each time. Take GGAUAUUGCCGUCUUUUGGCAAUGUCC (structured_RNA) [EMCVF]: the binding result in data set [3] and in data set [4] was “binds” throughout.

B1: EMCVDElinkF (structured_RNA)
RNA: GGAUACUGGCCGAAGCCGCUUGGAAUAAGGCCGGUGUGCGUUUGUCUAUAUGUUAUUUUCCACCAUAUUGCCGUCUUUUGGCAAUGUG
As for B1, the binding result in data set [5] is “binds”.

B2: EMCVDElink (structured_RNA)
RNA: GGAUACUGGCCGAAGCCGCUUGGAAUAAGGCCGGUGUGCGUUUGUCUAUAUGUUAUUUUCCAC
For the molecule B2, the binding result in data set [6] and in data set [7] was “binds” throughout.
